This series concerns the molecule itself. The series is described as follows: SEC-MALS; Superdex 200 HR 10/30, 20 mM Tris HCl, 150 mM NaCl, without DTT; mini-DAWN EOS and Optilab DSP detectors.

Data on one protein can be found in paper PMC3818214, “Novel Disulfide Bond-Mediated Dimerization of the CARD Domain Was Revealed by the Crystal Structure of CARMA1 CARD” (PLoS ONE, 2013).

B1: mouse CARMA1 CARD (amino acids 14-109) with C-terminal His-tag (domain or fragment, UniProt Q8CIS0 14-109, looked up)
chain: TLKDEEEALWDNVECNRHMLSRYINPAKLTPYLRQCKVIDEQDEDEVLNAPMLPSKINRAGRLLDILHTKGQRGYVVFLESLEFYYPELYKLVTGK
notes: CARMA1 (CARD11), mouse, CARD domain, amino acids 14-109; the solution experiments used the plain protein; Model built from residue 22 to 108, loop 64-70 missing; Vector pOKD (home-made); also called CARD11 CARD; not shown: His-tag, C-terminal, kept
For the protein B1, the “stoichiometry N” value is 2.
